The results in this text go back to FireProtDB (doi:10.1021/bi00250a042).

B1: Subtilisin-chymotrypsin inhibitor-2A, P01053 (parent)
chain: MSSVEKKPEGVNTGAGDRHNLKTEWPELVGKSVEEAKKVILQDKPEAQIIVLPVGTIVTMEYRIDRVRLFVDKLDNIAQVPRVG

The variants in this series derive from B1. To be noted: Hordeum vulgare; pH 6.3; 25 °C; GdnHCl; Fluorescence; MES 450 mM; reversible: yes; structure 2CI2; whole UniProt chain shown.

For the variant MSSVEKKPEGVNTGAGDRHNLKTEWPELVGKSVEEAKKVILQDKPEAQIIVLPVGTIVDMEYRIDRVRLFVDKLDNIAQVPRVG, the “ddG of mutation (higher = less stable)” value is 0.04 kcal/mol, the denaturant m value amounted to 1.87 kcal/mol/M, the “denaturant midpoint (higher = more stable)” value (shortened to “denaturant midpoint”) came out at 4.01 M and the unfolding free energy was 7.5 kcal/mol.

For the variant MSSVEKKPEGVNTGAGDRHNLKTEWPELVGKSVEEAKKVILQDKPEAQIIVLPVGTIVAMEYRIDRVRLFVDKLDNIAQVPRVG, the “ddG of mutation (higher = less stable)” value came to 0.68 kcal/mol, the denaturant m value is 1.89 kcal/mol/M, the “denaturant midpoint” value is 3.63 M and the unfolding free energy stood at 6.86 kcal/mol.

Turning to MSSVEKKPEGVNTGAGDRHNLKTEWPELVGKSVEEAKKVILQDKPEAQIIVLPVGTIVAMAYRIDRVRLFVDKLDNIAQVPRVG, the “ddG of mutation (higher = less stable)” value amounted to 0.67 kcal/mol, the denaturant m value was 1.94 kcal/mol/M, the “denaturant midpoint” value amounted to 3.54 M and the unfolding free energy came to 6.87 kcal/mol.

Regarding MSSVEKKPEGVNTGAGDRHNLKTEWPELVGKSVEEAKKVILQDKPEAQIIVLPVGTIVTMAYRIDRVRLFVDKLDNIAQVPRVG, the “ddG of mutation (higher = less stable)” value amounted to 1.06 kcal/mol, the denaturant m value was 1.78 kcal/mol/M, the “denaturant midpoint” value was 3.64 M and the unfolding free energy amounted to 6.48 kcal/mol.
